Assay results reported in article doi:10.1101/336578.
Read-outs that look alike come from different tables or passages of the source.

What was measured:
[1] = biological target: KS-PPT di-domain construct of the S. cerevisiae FAS α-chain (S. cerevisiae); test: SEC
[2] = biological target: KS-PPT di-domain construct of the S. cerevisiae FAS α-chain (S. cerevisiae); test: SEC; remark: listed apart in the source

- stoichiometry N [1]: 2.5
- stoichiometry N [2]: 2
Substance: KS-PPT di-domain construct of the S. cerevisiae FAS α-chain (domain or fragment)
